According to patent publication US20030040012A1 (published 2003):

Tests used:
[1] = target: T1, NpwBP (Homo sapiens (Human), UniProt Q9Y2W2 1-641); assay: competition by co-expression in COS7 cells, GFP localization
T1 construct: Expressed inside COS7 cells, without an added protein A because it has its own nuclear localization signal
T1 sequence: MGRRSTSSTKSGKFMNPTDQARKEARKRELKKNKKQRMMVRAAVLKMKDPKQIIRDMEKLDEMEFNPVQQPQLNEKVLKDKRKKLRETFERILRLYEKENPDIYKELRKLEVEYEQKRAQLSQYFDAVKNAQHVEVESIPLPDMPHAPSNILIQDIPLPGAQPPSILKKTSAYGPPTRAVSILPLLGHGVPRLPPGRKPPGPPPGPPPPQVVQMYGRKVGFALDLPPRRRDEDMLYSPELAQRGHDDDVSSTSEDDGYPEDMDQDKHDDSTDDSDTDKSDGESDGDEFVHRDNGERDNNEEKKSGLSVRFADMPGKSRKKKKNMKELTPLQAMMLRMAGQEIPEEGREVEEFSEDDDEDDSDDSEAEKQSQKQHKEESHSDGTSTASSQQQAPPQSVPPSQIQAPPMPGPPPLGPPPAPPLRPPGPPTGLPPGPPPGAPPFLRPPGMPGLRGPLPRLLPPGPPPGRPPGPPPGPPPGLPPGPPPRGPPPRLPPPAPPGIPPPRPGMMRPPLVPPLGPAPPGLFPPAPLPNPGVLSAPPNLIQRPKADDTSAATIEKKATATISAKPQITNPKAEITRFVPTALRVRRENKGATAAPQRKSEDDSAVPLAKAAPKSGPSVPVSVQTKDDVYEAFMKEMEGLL

[2] = target: T2, fusion protein NpwBP(P2)-GFP (UniProt P42212 1-238 = GFP, limits assumed); assay: co-expression in COS7 cells, fluorescence microscopy of GFP localization
T2 construct: Expressed inside COS7 cells from pKA1-NpwBP(P2)-GFP; also called NpwBP-GFP
Method: After the medium was removed, the cell sur were washed with a phosphate buffer solution (PBS), and then further washed with a 50 mM Tris-HCl (pH 7.5)-containing DMEM. To these cells, added was a suspension comprising 1 μl of a plasmid suspension, 0.6 ml of DMEM and 3 μl of […]™ (from IBF), and incubated in the presence of 5% CO₂ at 37° C. for 12 hours. Then, the cells were washed with PBS, and fixed with 4% peraformaldehyde-containing PBS at room temperature for 10 minutes. The thus-fixed cells were washed with PBS, then treated with 0.2% Triton X-100, and thereafter blocked with 5% milk PBS. […]
First, pKA1-NpwBP(P1)-GFP or pKA1-NpwBP(P2)-GFP was singly introduced into COS7 cells, and the localization of these fusion proteins in the cells was checked through fluorescence microscopy based on the green fluorescence of GFP as the index thereof. […] Next, along with these NpwBP-GFP fusion protein expression vectors, an Npw38 expression vector, pKA1-Npw38 was introduced into COS7 cells, and the green fluorescence was localized in the nucleus of each cell (FIG. 3b). […] On the other hand, when Npw38(W52A) (A. Komuro et al., Nucl. Acids Res., 27: 1957-1965, 1999), which is a WW domain variant of Npw38, was expressed in the cells in place of HA-Npw38, or when GFP was expressed in the cells in place of NpwBP-GFP, no intranuclear localization of the green fluorescence was found.

B1: fusion protein HA-Npw38 (other)
chain: MPLPVALQTRLAKRGILKHLEPEPEEEIIAEDYDDDPVDYEATRLEGLPPSWYKVFDPSCGLPYYWNADTDLVSWLSPHDPNSVVTKSAKKLRSSNADAEEKLDRSHDKSDRGHDKSDRSHEKLDRGHDKSDRGHDKSDRDRERGYDKVDRERERDRERDRDRGYDKADREEGKERRHHRREELAPYPKSKKAVSRKDEELDPMDPSSYSDAPRGTWSTGLPKRNEAKTGADTTAAGPLFQQRPYPSPGAVLRANAEASRTKQQD
notes: All are treated as the same molecule; not shown: HA tag (protein A of fusion A-X)
[1]
  binding result: binds
[2]
  binding result: binds

B2: Npw38(W52A), a WW domain variant of Npw38 (other)
chain: MPLPVALQTRLAKRGILKHLEPEPEEEIIAEDYDDDPVDYEATRLEGLPPSAYKVFDPSCGLPYYWNADTDLVSWLSPHDPNSVVTKSAKKLRSSNADAEEKLDRSHDKSDRGHDKSDRSHEKLDRGHDKSDRGHDKSDRDRERGYDKVDRERERDRERDRDRGYDKADREEGKERRHHRREELAPYPKSKKAVSRKDEELDPMDPSSYSDAPRGTWSTGLPKRNEAKTGADTTAAGPLFQQRPYPSPGAVLRANAEASRTKQQD
notes: Expressed in COS7 cells in place of HA-Npw38
[2]
  binding result: no binding
